Data published in US20210388083A1.

How the values were obtained:
[1] = target: histidine-tagged human FcγRIIIa-158V (human) (UniProt P08637); test: BLI (Octet Red384); His-tagged receptor on anti-Penta-HIS biosensor; antibody 15.6-500 nM, PBS pH 7.2; global 1:1 fit
[2] = target: histidine-tagged mouse FcγRIV (mouse); test: BLI (Octet Red384); His-tagged receptor on anti-Penta-HIS biosensor; antibody 125-4000 nM, PBS pH 7.2; global 1:1 fit
[3] = target: histidine-tagged human FcγRIIIa-158V (human) (UniProt P08637); test: as above
[4] = target: histidine-tagged human FcγRIIIa-158F (human) (UniProt P08637); test: as above
[5] = target: histidine-tagged human FcγRIIIa-158V (human) (UniProt P08637); test: BLI (Octet Red384); His-tagged receptor (row FcγRIIIA (V158)) on anti-Penta-HIS biosensor; antibody 125-4000 nM, PBS pH 7.2; global 1:1 fit
[6] = target: histidine-tagged human FcRn (human) (UniProt P55899); test: BLI (Octet Red384); His-tagged receptor on anti-Penta-HIS biosensor; antibody 75-1000 nM, PBS pH 5.8; global 1:1 fit
[7] = target: histidine-tagged mouse FcRn (mouse) (UniProt Q61559); test: as above
[8] = target: histidine-tagged human FcγRIIIa-158F (human) (UniProt P08637); test: BLI (Octet Red384); His-tagged receptor (row FcγRIIIA (F158)) on anti-Penta-HIS biosensor; antibody 125-4000 nM, PBS pH 7.2; global 1:1 fit
[9] = target: histidine-tagged human FcRn (human) (UniProt P55899); test: BLI (Octet Red384); His-tagged receptor (row FcRn) on anti-Penta-HIS biosensor; antibody 75-1000 nM, PBS pH 5.8; global 1:1 fit
[10] = target: histidine-tagged mouse FcγRIV (mouse); test: BLI (Octet Red384); His-tagged receptor (row moFcγRIV) on anti-Penta-HIS biosensor; antibody 125-4000 nM, PBS pH 7.2; global 1:1 fit
[11] = target: histidine-tagged mouse FcRn (mouse) (UniProt Q61559); test: BLI (Octet Red384); His-tagged receptor (row moFcRn) on anti-Penta-HIS biosensor; antibody 75-1000 nM, PBS pH 5.8; global 1:1 fit

Substance “antigen-binding molecule specific for HER3 comprising Wildtype (WT) Fc, human IgG1 (G1m3 allotype) (antibody)” has a Kd [1] of 0.317 µM, a Kd [2] of 0.544 µM and a Kd [3] of 0.661 µM. The Kd [4] was 2.23 µM, the Kd [5] was 0.661 µM and the Kd [6] was 0.0337 µM. It also gave a Kd [7] of 0.0151 µM, a Kd [8] of 2.23 µM and a Kd [9] of 0.0337 µM. The Kd [10] was 0.544 µM and the Kd [11] was 0.0151 µM.

Work on “antigen-binding molecule specific for HER3 comprising GASDALIE Fc, human IgG1 (G1m3 allotype) (antibody)” yielded a Kd [1] of 0.024 µM, a koff [1] of 0.0052 s⁻¹ and a kon [1] of 220000 M⁻¹ s⁻¹.

“antigen-binding molecule specific for HER3 comprising GASDIE Fc, human IgG1 (G1m3 allotype) (antibody)” was tested, and the Kd [1] was 0.035 µM, the koff [1] was 0.0072 s⁻¹ and the kon [1] was 200000 M⁻¹ s⁻¹.

“antigen-binding molecule specific for HER3 comprising GASD Fc, human IgG1 (G1m3 allotype) (antibody)” gave a Kd [1] of 0.115 µM, a koff [1] of 0.017 s⁻¹ and a kon [1] of 150000 M⁻¹ s⁻¹.
